Patent publication US10919943B2, “Mutant proteins enabling agrochemical control of plant gene expression” (The Regents of the University of California, priority 2016, dated 2021)

B1: E323L: HAB1 mutant (protein, UniProt Q9CAJ0 23-511, looked up, variant E323L)
Protein phosphatase 2C 16: SPVEITQLKNVTDAADLLSDSENQSFCNGGTECTMEDVSELEEVGEQDLLKTLSDTRSGSSNVFDEDDVLSVVEDNSAVISEGLLVVDAGSELSLSNTAMEIDNGRVLATAIIVGESSIEQVPTAEVLIAGVNQDTNTSEVVIRLPDENSNHLVKGRSVYELDCIPLWGTVSIQGNRSEMEDAFAVSPHFLKLPIKMLMGDHEGMSPSLTHLTGHFFGVYDGHGGHKVADYCRDRLHFALAEEIERIKDELCKRNTGEGRQVQWDKVFTSCFLTVDGEIEGKIGRAVVGSSDKVLEAVASLTVGSTAVVALVCSSHIVVSNCGDSRAVLFRGKEAMPLSVDHKPDREDEYARIENAGGKVIQWQGARVFGVLAMSRSIGDRYLKPYVIPEPEVTFMPRSREDECLILASDGLWDVMNNQEVCEIARRRILMWHKKNGAPPLAERGKGIDPACQAAADYLSMLALQKGSKDNISIIVIDLKAQRKFKTRT
B2: K381W: HAB1 mutant (protein, UniProt Q9CAJ0 23-511, looked up, variant K381W)
Protein phosphatase 2C 16: SPVEITQLKNVTDAADLLSDSENQSFCNGGTECTMEDVSELEEVGEQDLLKTLSDTRSGSSNVFDEDDVLSVVEDNSAVISEGLLVVDAGSELSLSNTAMEIDNGRVLATAIIVGESSIEQVPTAEVLIAGVNQDTNTSEVVIRLPDENSNHLVKGRSVYELDCIPLWGTVSIQGNRSEMEDAFAVSPHFLKLPIKMLMGDHEGMSPSLTHLTGHFFGVYDGHGGHKVADYCRDRLHFALAEEIERIKDELCKRNTGEGRQVQWDKVFTSCFLTVDGEIEGKIGRAVVGSSDKVLEAVASETVGSTAVVALVCSSHIVVSNCGDSRAVLFRGKEAMPLSVDHKPDREDEYARIENAGGWVIQWQGARVFGVLAMSRSIGDRYLKPYVIPEPEVTFMPRSREDECLILASDGLWDVMNNQEVCEIARRRILMWHKKNGAPPLAERGKGIDPACQAAADYLSMLALQKGSKDNISIIVIDLKAQRKFKTRT
B3: I383N: HAB1 mutant (protein, UniProt Q9CAJ0 23-511, looked up, variant I383N)
Protein phosphatase 2C 16: SPVEITQLKNVTDAADLLSDSENQSFCNGGTECTMEDVSELEEVGEQDLLKTLSDTRSGSSNVFDEDDVLSVVEDNSAVISEGLLVVDAGSELSLSNTAMEIDNGRVLATAIIVGESSIEQVPTAEVLIAGVNQDTNTSEVVIRLPDENSNHLVKGRSVYELDCIPLWGTVSIQGNRSEMEDAFAVSPHFLKLPIKMLMGDHEGMSPSLTHLTGHFFGVYDGHGGHKVADYCRDRLHFALAEEIERIKDELCKRNTGEGRQVQWDKVFTSCFLTVDGEIEGKIGRAVVGSSDKVLEAVASETVGSTAVVALVCSSHIVVSNCGDSRAVLFRGKEAMPLSVDHKPDREDEYARIENAGGKVNQWQGARVFGVLAMSRSIGDRYLKPYVIPEPEVTFMPRSREDECLILASDGLWDVMNNQEVCEIARRRILMWHKKNGAPPLAERGKGIDPACQAAADYLSMLALQKGSKDNISIIVIDLKAQRKFKTRT
B4: I383P: HAB1 mutant (protein, UniProt Q9CAJ0 23-511, looked up, variant I383P)
Protein phosphatase 2C 16: SPVEITQLKNVTDAADLLSDSENQSFCNGGTECTMEDVSELEEVGEQDLLKTLSDTRSGSSNVFDEDDVLSVVEDNSAVISEGLLVVDAGSELSLSNTAMEIDNGRVLATAIIVGESSIEQVPTAEVLIAGVNQDTNTSEVVIRLPDENSNHLVKGRSVYELDCIPLWGTVSIQGNRSEMEDAFAVSPHFLKLPIKMLMGDHEGMSPSLTHLTGHFFGVYDGHGGHKVADYCRDRLHFALAEEIERIKDELCKRNTGEGRQVQWDKVFTSCFLTVDGEIEGKIGRAVVGSSDKVLEAVASETVGSTAVVALVCSSHIVVSNCGDSRAVLFRGKEAMPLSVDHKPDREDEYARIENAGGKVPQWQGARVFGVLAMSRSIGDRYLKPYVIPEPEVTFMPRSREDECLILASDGLWDVMNNQEVCEIARRRILMWHKKNGAPPLAERGKGIDPACQAAADYLSMLALQKGSKDNISIIVIDLKAQRKFKTRT
B5: S85C: PYR1 mutant (protein, UniProt O49686 1-191, looked up, variant S85C)
Abscisic acid receptor PYR1: MPSELTPEERSELKNSIAEFHTYQLDPGSCSSLHAQRIHAPPELVWSIVRRFDKPQTYKHFIKSCSVEQNFEMRVGCTRDVIVICGLPANTSTERLDILDDERRVTGFSIIGGEHRLTNYKSVTTVHRFEKENRIWTVVLESYVVDMPEGNSEDDTRMFADTVVKLNLQKLATVAEAMARNSGDGSGSQVT
B6: S85E: PYR1 mutant (protein, UniProt O49686 1-191, looked up, variant S85E)
Abscisic acid receptor PYR1: MPSELTPEERSELKNSIAEFHTYQLDPGSCSSLHAQRIHAPPELVWSIVRRFDKPQTYKHFIKSCSVEQNFEMRVGCTRDVIVIEGLPANTSTERLDILDDERRVTGFSIIGGEHRLTNYKSVTTVHRFEKENRIWTVVLESYVVDMPEGNSEDDTRMFADTVVKLNLQKLATVAEAMARNSGDGSGSQVT
B7: S85G: PYR1 mutant (protein, UniProt O49686 1-191, looked up, variant S85G)
Abscisic acid receptor PYR1: MPSELTPEERSELKNSIAEFHTYQLDPGSCSSLHAQRIHAPPELVWSIVRRFDKPQTYKHFIKSCSVEQNFEMRVGCTRDVIVIGGLPANTSTERLDILDDERRVTGFSIIGGEHRLTNYKSVTTVHRFEKENRIWTVVLESYVVDMPEGNSEDDTRMFADTVVKLNLQKLATVAEAMARNSGDGSGSQVT
B8: S85Y: PYR1 mutant (protein, UniProt O49686 1-191, looked up, variant S85Y)
Abscisic acid receptor PYR1: MPSELTPEERSELKNSIAEFHTYQLDPGSCSSLHAQRIHAPPELVWSIVRRFDKPQTYKHFIKSCSVEQNFEMRVGCTRDVIVIYGLPANTSTERLDILDDERRVTGFSIIGGEHRLTNYKSVTTVHRFEKENRIWTVVLESYVVDMPEGNSEDDTRMFADTVVKLNLQKLATVAEAMARNSGDGSGSQVT
B9: S85I: PYR1 mutant (protein, UniProt O49686 1-191, looked up, variant S85I)
Abscisic acid receptor PYR1: MPSELTPEERSELKNSIAEFHTYQLDPGSCSSLHAQRIHAPPELVWSIVRRFDKPQTYKHFIKSCSVEQNFEMRVGCTRDVIVIIGLPANTSTERLDILDDERRVTGFSIIGGEHRLTNYKSVTTVHRFEKENRIWTVVLESYVVDMPEGNSEDDTRMFADTVVKLNLQKLATVAEAMARNSGDGSGSQVT
B10: S85K: PYR1 mutant (protein, UniProt O49686 1-191, looked up, variant S85K)
Abscisic acid receptor PYR1: MPSELTPEERSELKNSIAEFHTYQLDPGSCSSLHAQRIHAPPELVWSIVRRFDKPQTYKHFIKSCSVEQNFEMRVGCTRDVIVIKGLPANTSTERLDILDDERRVTGFSIIGGEHRLTNYKSVTTVHRFEKENRIWTVVLESYVVDMPEGNSEDDTRMFADTVVKLNLQKLATVAEAMARNSGDGSGSQVT
B11: S85F: PYR1 mutant (protein, UniProt O49686 1-191, looked up, variant S85F)
Abscisic acid receptor PYR1: MPSELTPEERSELKNSIAEFHTYQLDPGSCSSLHAQRIHAPPELVWSIVRRFDKPQTYKHFIKSCSVEQNFEMRVGCTRDVIVIFGLPANTSTERLDILDDERRVTGFSIIGGEHRLTNYKSVTTVHRFEKENRIWTVVLESYVVDMPEGNSEDDTRMFADTVVKLNLQKLATVAEAMARNSGDGSGSQVT
B12: S85D: PYR1 mutant (protein, UniProt O49686 1-191, looked up, variant S85D)
Abscisic acid receptor PYR1: MPSELTPEERSELKNSIAEFHTYQLDPGSCSSLHAQRIHAPPELVWSIVRRFDKPQTYKHFIKSCSVEQNFEMRVGCTRDVIVIDGLPANTSTERLDILDDERRVTGFSIIGGEHRLTNYKSVTTVHRFEKENRIWTVVLESYVVDMPEGNSEDDTRMFADTVVKLNLQKLATVAEAMARNSGDGSGSQVT
B13: S85H: PYR1 mutant (protein, UniProt O49686 1-191, looked up, variant S85H)
Abscisic acid receptor PYR1: MPSELTPEERSELKNSIAEFHTYQLDPGSCSSLHAQRIHAPPELVWSIVRRFDKPQTYKHFIKSCSVEQNFEMRVGCTRDVIVIHGLPANTSTERLDILDDERRVTGFSIIGGEHRLTNYKSVTTVHRFEKENRIWTVVLESYVVDMPEGNSEDDTRMFADTVVKLNLQKLATVAEAMARNSGDGSGSQVT

Assays:
PYR1 = molecular target: T1, PYR1 (Arabidopsis thaliana, UniProt O49686); assay: Yeast two hybrid of pACT-HAB1 site saturation mutants with pBD-PYR1 on 10 μM ABA, β-galactosidase staining; format: cell-based; design: key: x: Mutations in HAB1 that disrupt HAB1 interaction with PYR1; conditions: S. cerevisiae Y190, 10 μM ABA; dead = lack of detectable staining in comparison to wild type control
T1 construct: expressed in transfected cells; host or cells: S. cerevisiae strain Y190
T1 sequence (O49686 1-191): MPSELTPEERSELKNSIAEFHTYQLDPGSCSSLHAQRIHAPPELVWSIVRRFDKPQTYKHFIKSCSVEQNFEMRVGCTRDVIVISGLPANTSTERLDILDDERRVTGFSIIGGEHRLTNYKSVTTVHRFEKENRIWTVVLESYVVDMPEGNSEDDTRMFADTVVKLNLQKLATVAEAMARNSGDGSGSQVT
Description: To systematically define mutations in HAB1 that disrupt its binding to PYR1, we used site saturation mutagenesis to create a collection all possible single amino acid substitutions in 20 residues lining the PYR1 binding interface, and then assayed the ability of each mutant to bind PYR1 using the yeast two hybrid assay described above. We targeted the following residues for mutagenesis: R199, 5200, E201, E203, H245, G246, G247, S322, E323, T324, K381, I383, Q384, W385, Q386, R389, F391, G392, V393, and Y404. To create the collection of mutations, mutagenic “NNK” site directed mutagenesis primers were synthesized for each of the 20 positions and the primers used in QuickChange site-directed mutagenesis reactions using a previously described pACT-HAB1 template (Park et al., 2009). We note that this clone uses a HAB1 cDNA lacking its three N-terminal amino acids. The reaction products were digested with DpnI, and transformed into competent Escherichia coli DH5α cells and plasmid DNA for 96 colonies per site was isolated using Bioneer AccuPrep® Plasmid Mini Extraction Kit (Alameda, Calif.) and sequenced to identify mutants. This process identified most of the 19 desired mutations per target site; the remaining mutations were constructed directly using specific mutagenic primers. To interrogate the effects of the mutations on PYR1-HAB1 interactions, the mutant clones were individually transformed into S. cerevisiae strain Y190 containing pBD-PYR1 (Park et al., 2009). Yeast transformants were selected for the presence of plasmids on selective SD (-Leu,-Trp) plates and then spotted onto SD (-Leu,-Trp) agar plates supplemented with 10 μM ABA. After incubating the test plates at 30° C. for two days, the colonies were lysed with chloroform and stained to reveal […] expression levels. “Dead” mutants were defined by lack of detectable staining in comparison to a wild type pBD-PYR1/pACT-HAB1 control. This screening effort defined 163 mutations that disrupt the ABA-induced PYR1/HAB1 interaction (Table 2).

HAB1 = assay: Yeast two hybrid of pBD-PYR1 site saturation mutants with pACT-HAB1 on 10 μM ABA, β-galactosidase staining; format: cell-based, Arabidopsis; design: key: x: Mutations in PYR1 that disrupt ABA-induced binding to PYR1 to HAB1; conditions: S. cerevisiae Y190, 10 μM ABA; dead = lack of visible staining in comparison to wild type control
Procedure, shortened: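 Binding was read by β-galactosidase staining of chloroform-lysed colonies after 2 days at 30° C on SD (-Leu, -Trp) plates containing 10 μM (+)-ABA. Yeast strain Y190 carried the BD-PYR1 single-substitution mutants plus the AD-HAB1 fusion. Absence of staining versus the wild-type control defined "dead" mutants.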

| Molecule | Mutations in HAB1 that disrupt HAB1 interaction with PYR1 (PYR1) | Mutations in PYR1 that disrupt ABA-induced binding to PYR1 to HAB1 (HAB1) |
| --- | --- | --- |
| B1 | x |  |
| B2 | x |  |
| B3 | x |  |
| B4 | x |  |
| B5 |  | x |
| B6 |  | x |
| B7 |  | x |
| B8 |  | x |
| B9 |  | x |
| B10 |  | x |
| B11 |  | x |
| B12 |  | x |
| B13 |  | x |
